Results on one molecule are retold here after publication PMC3828167 (PLoS Pathogens, 2013).

This assay addresses Legionella pneumophila RalF Sec7 domain (LpRalF^Sec7, residues 1-201) (Legionella pneumophila, UniProt Q8RT31 1-201). Briefly: SEC. Particulars: both partners purified.

B1: Human Arf1 lacking its N-terminal alpha-helix (Δ17Arf1) (domain or fragment)
chain: not shown
notes: also called Arf1-GDP; nucleotide-free Arf1
For B1, the binding result is given as “binds”.
